Each block holds one binder with its values, some of them ahead of it. Positions of bridges follow the written chain, without caps; N, C: chain ends. Non-standard residues stand in square brackets, D forms with d. Bip = N[C@@H](Cc1ccc(-c2ccccc2)cc1)C(=O)O; 1Nal = N[C@@H](Cc1cccc2ccccc12)C(=O)O; 2Nal = N[C@@H](Cc1ccc2ccccc2c1)C(=O)O; NMeNle = CCCC[C@H](NC)C(=O)O; NMeA = CN[C@@H](C)C(=O)O; Sar = CNCC(=O)O
Biological target: T1, human PD-L1 (human, UniProt Q9NZQ7 19-239, limits assumed)
T1 construct: also called Hu PD-L1; hPD-L1
Assay: cell binding assay, inhibition of Hu PD-L1/PD-1 binding

T1 sequence (Q9NZQ7 19-239 limits assumed): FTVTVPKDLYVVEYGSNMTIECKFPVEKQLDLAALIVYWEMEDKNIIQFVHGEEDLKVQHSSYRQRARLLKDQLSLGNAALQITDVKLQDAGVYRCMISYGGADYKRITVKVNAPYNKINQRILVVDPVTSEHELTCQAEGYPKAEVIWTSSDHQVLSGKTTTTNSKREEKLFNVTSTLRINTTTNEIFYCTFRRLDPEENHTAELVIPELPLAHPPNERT

B1: Compound No. 43 (peptide)
peptide: {CH2CO}-F[NMeA]GPHL[Sar]WSW[NMeNle][NMeNle]RCG-NH2
modifications: thioether N-14
SMILES: CCCC[C@H]1C(=O)N(C)[C@@H](CCCC)C(=O)N[C@@H](CCCNC(=N)N)C(=O)N[C@H](C(=O)NCC(N)=O)CSCC(=O)N[C@@H](Cc2ccccc2)C(=O)N(C)[C@@H](C)C(=O)NCC(=O)N2CCC[C@H]2C(=O)N[C@@H](Cc2c[nH]cn2)C(=O)N[C@@H](CC(C)C)C(=O)N(C)CC(=O)N[C@@H](Cc2c[nH]c3ccccc23)C(=O)N[C@@H](CO)C(=O)N[C@@H](Cc2c[nH]c3ccccc23)C(=O)N1C
notes: macrocyclic peptide, Formula I series; also called Compound 43
IC50: 5330 nM

B2: Compound No. 51 (peptide)
peptide: {CH2CO}-F[NMeA]NPHD[Sar]WSW[NMeNle][NMeNle]RCG-NH2
modifications: thioether N-14
SMILES: CCCC[C@H]1C(=O)N(C)[C@@H](CCCC)C(=O)N[C@@H](CCCNC(=N)N)C(=O)N[C@H](C(=O)NCC(N)=O)CSCC(=O)N[C@@H](Cc2ccccc2)C(=O)N(C)[C@@H](C)C(=O)N[C@@H](CC(N)=O)C(=O)N2CCC[C@H]2C(=O)N[C@@H](Cc2c[nH]cn2)C(=O)N[C@@H](CC(=O)O)C(=O)N(C)CC(=O)N[C@@H](Cc2c[nH]c3ccccc23)C(=O)N[C@@H](CO)C(=O)N[C@@H](Cc2c[nH]c3ccccc23)C(=O)N1C
notes: macrocyclic peptide, Formula I series; also called Compound 51
IC50: 118 nM

B3: Compound No. 53 (peptide)
peptide: {CH2CO}-F[NMeA]NPHLHWSW[NMeNle][NMeNle]RCG-NH2
modifications: thioether N-14
SMILES: CCCC[C@H]1C(=O)N(C)[C@@H](CCCC)C(=O)N[C@@H](CCCNC(=N)N)C(=O)N[C@H](C(=O)NCC(N)=O)CSCC(=O)N[C@@H](Cc2ccccc2)C(=O)N(C)[C@@H](C)C(=O)N[C@@H](CC(N)=O)C(=O)N2CCC[C@H]2C(=O)N[C@@H](Cc2c[nH]cn2)C(=O)N[C@@H](CC(C)C)C(=O)N[C@@H](Cc2c[nH]cn2)C(=O)N[C@@H](Cc2c[nH]c3ccccc23)C(=O)N[C@@H](CO)C(=O)N[C@@H](Cc2c[nH]c3ccccc23)C(=O)N1C
notes: macrocyclic peptide, Formula I series; also called Compound 53
IC50: 47 nM

B4: Compound No. 54 (peptide)
peptide: {CH2CO}-F[NMeA]NPHLRWSW[NMeNle][NMeNle]RCG-NH2
modifications: thioether N-14
SMILES: CCCC[C@H]1C(=O)N(C)[C@@H](CCCC)C(=O)N[C@@H](CCCNC(=N)N)C(=O)N[C@H](C(=O)NCC(N)=O)CSCC(=O)N[C@@H](Cc2ccccc2)C(=O)N(C)[C@@H](C)C(=O)N[C@@H](CC(N)=O)C(=O)N2CCC[C@H]2C(=O)N[C@@H](Cc2c[nH]cn2)C(=O)N[C@@H](CC(C)C)C(=O)N[C@@H](CCCNC(=N)N)C(=O)N[C@@H](Cc2c[nH]c3ccccc23)C(=O)N[C@@H](CO)C(=O)N[C@@H](Cc2c[nH]c3ccccc23)C(=O)N1C
notes: macrocyclic peptide, Formula I series; also called Compound 54
IC50: 68 nM

B8: Compound No. 67 (peptide)
peptide: FANPHLGWSWFXRCG
HELM: PEPTIDE1{[O=C(C[*:3])[*:2]].F.[meA].N.P.H.L.[Sar].W.S.W.[meF].[CCCC[C@@H](C(=O)[*:2])N(C)[*:1]].R.C.G.[am]}$PEPTIDE1,PEPTIDE1,1:R3-15:R3$$$V2.0
SMILES: CCCC[C@H]1C(=O)N[C@@H](CCCNC(=N)N)C(=O)N[C@H](C(=O)NCC(N)=O)CSCC(=O)N[C@@H](Cc2ccccc2)C(=O)N(C)[C@@H](C)C(=O)N[C@@H](CC(N)=O)C(=O)N2CCC[C@H]2C(=O)N[C@@H](Cc2c[nH]cn2)C(=O)N[C@@H](CC(C)C)C(=O)N(C)CC(=O)N[C@@H](Cc2c[nH]c3ccccc23)C(=O)N[C@@H](CO)C(=O)N[C@@H](Cc2c[nH]c3ccccc23)C(=O)N(C)[C@@H](Cc2ccccc2)C(=O)N1C
notes: macrocyclic peptide, Formula I series; also called Compound 67
IC50: 143 nM

B9: Compound No. 19 (peptide)
peptide: FANPHLGWSWAXRCG
HELM: PEPTIDE1{[O=C(C[*:3])[*:2]].F.[meA].N.P.H.L.[Sar].W.S.W.[meA].[CCCC[C@@H](C(=O)[*:2])N(C)[*:1]].R.C.G.[am]}$PEPTIDE1,PEPTIDE1,1:R3-15:R3$$$V2.0
SMILES: CCCC[C@H]1C(=O)N[C@@H](CCCNC(=N)N)C(=O)N[C@H](C(=O)NCC(N)=O)CSCC(=O)N[C@@H](Cc2ccccc2)C(=O)N(C)[C@@H](C)C(=O)N[C@@H](CC(N)=O)C(=O)N2CCC[C@H]2C(=O)N[C@@H](Cc2c[nH]cn2)C(=O)N[C@@H](CC(C)C)C(=O)N(C)CC(=O)N[C@@H](Cc2c[nH]c3ccccc23)C(=O)N[C@@H](CO)C(=O)N[C@@H](Cc2c[nH]c3ccccc23)C(=O)N(C)[C@@H](C)C(=O)N1C
notes: macrocyclic peptide, Formula I series; also called Compound 19
IC50: 134 nM

B11: Compound No. 24 (peptide)
peptide: {CH2CO}-F[NMeA]NPHL[Sar]WSW[NMeNle][NMeNle]RC-NH2
modifications: thioether N-14
SMILES: CCCC[C@H]1C(=O)N(C)[C@@H](CCCC)C(=O)N[C@@H](CCCNC(=N)N)C(=O)N[C@H](C(N)=O)CSCC(=O)N[C@@H](Cc2ccccc2)C(=O)N(C)[C@@H](C)C(=O)N[C@@H](CC(N)=O)C(=O)N2CCC[C@H]2C(=O)N[C@@H](Cc2c[nH]cn2)C(=O)N[C@@H](CC(C)C)C(=O)N(C)CC(=O)N[C@@H](Cc2c[nH]c3ccccc23)C(=O)N[C@@H](CO)C(=O)N[C@@H](Cc2c[nH]c3ccccc23)C(=O)N1C
notes: macrocyclic peptide, Formula I series; also called Compound 24
IC50: 8 nM

B12: Compound No. 26 (peptide)
peptide: {CH2CO}-[2Nal][NMeA]NPHL[Sar]WSW[NMeNle][NMeNle]RCG-NH2
modifications: thioether N-14
SMILES: CCCC[C@H]1C(=O)N(C)[C@@H](CCCC)C(=O)N[C@@H](CCCNC(=N)N)C(=O)N[C@H](C(=O)NCC(N)=O)CSCC(=O)N[C@@H](Cc2ccc3ccccc3c2)C(=O)N(C)[C@@H](C)C(=O)N[C@@H](CC(N)=O)C(=O)N2CCC[C@H]2C(=O)N[C@@H](Cc2c[nH]cn2)C(=O)N[C@@H](CC(C)C)C(=O)N(C)CC(=O)N[C@@H](Cc2c[nH]c3ccccc23)C(=O)N[C@@H](CO)C(=O)N[C@@H](Cc2c[nH]c3ccccc23)C(=O)N1C
notes: macrocyclic peptide, Formula I series; also called Compound 26
IC50: 13 nM

B13: Compound No. 27 (peptide)
peptide: {CH2CO}-[1Nal][NMeA]NPHL[Sar]WSW[NMeNle][NMeNle]RCG-NH2
modifications: thioether N-14
SMILES: CCCC[C@H]1C(=O)N(C)[C@@H](CCCC)C(=O)N[C@@H](CCCNC(=N)N)C(=O)N[C@H](C(=O)NCC(N)=O)CSCC(=O)N[C@@H](Cc2cccc3ccccc23)C(=O)N(C)[C@@H](C)C(=O)N[C@@H](CC(N)=O)C(=O)N2CCC[C@H]2C(=O)N[C@@H](Cc2c[nH]cn2)C(=O)N[C@@H](CC(C)C)C(=O)N(C)CC(=O)N[C@@H](Cc2c[nH]c3ccccc23)C(=O)N[C@@H](CO)C(=O)N[C@@H](Cc2c[nH]c3ccccc23)C(=O)N1C
notes: macrocyclic peptide, Formula I series; also called Compound 27
IC50: 28 nM

B14: Compound No. 28 (peptide)
peptide: {CH2CO}-[Bip][NMeA]NPHL[Sar]WSW[NMeNle][NMeNle]RCG-NH2
modifications: thioether N-14
SMILES: CCCC[C@H]1C(=O)N(C)[C@@H](CCCC)C(=O)N[C@@H](CCCNC(=N)N)C(=O)N[C@H](C(=O)NCC(N)=O)CSCC(=O)N[C@@H](Cc2ccc(-c3ccccc3)cc2)C(=O)N(C)[C@@H](C)C(=O)N[C@@H](CC(N)=O)C(=O)N2CCC[C@H]2C(=O)N[C@@H](Cc2c[nH]cn2)C(=O)N[C@@H](CC(C)C)C(=O)N(C)CC(=O)N[C@@H](Cc2c[nH]c3ccccc23)C(=O)N[C@@H](CO)C(=O)N[C@@H](Cc2c[nH]c3ccccc23)C(=O)N1C
notes: macrocyclic peptide, Formula I series; also called Compound 28
IC50: 82 nM

The remaining lines, values ahead:

IC50: 3 nM
B5: Compound No. 55 (peptide)
peptide: {CH2CO}-F[NMeA]NPHLPWSW[NMeNle][NMeNle]RCG-NH2
modifications: thioether N-14
SMILES: CCCC[C@H]1C(=O)N(C)[C@@H](CCCC)C(=O)N[C@@H](CCCNC(=N)N)C(=O)N[C@H](C(=O)NCC(N)=O)CSCC(=O)N[C@@H](Cc2ccccc2)C(=O)N(C)[C@@H](C)C(=O)N[C@@H](CC(N)=O)C(=O)N2CCC[C@H]2C(=O)N[C@@H](Cc2c[nH]cn2)C(=O)N[C@@H](CC(C)C)C(=O)N2CCC[C@H]2C(=O)N[C@@H](Cc2c[nH]c3ccccc23)C(=O)N[C@@H](CO)C(=O)N[C@@H](Cc2c[nH]c3ccccc23)C(=O)N1C
notes: macrocyclic peptide, Formula I series; also called Compound 55

IC50: 195 nM
B6: Compound No. 61 (peptide)
peptide: {CH2CO}-F[NMeA]NPHL[Sar]WSM[NMeNle][NMeNle]RCG-NH2
modifications: thioether N-14
SMILES: CCCC[C@H]1C(=O)N(C)[C@@H](CCCC)C(=O)N[C@@H](CCCNC(=N)N)C(=O)N[C@H](C(=O)NCC(N)=O)CSCC(=O)N[C@@H](Cc2ccccc2)C(=O)N(C)[C@@H](C)C(=O)N[C@@H](CC(N)=O)C(=O)N2CCC[C@H]2C(=O)N[C@@H](Cc2c[nH]cn2)C(=O)N[C@@H](CC(C)C)C(=O)N(C)CC(=O)N[C@@H](Cc2c[nH]c3ccccc23)C(=O)N[C@@H](CO)C(=O)N[C@@H](CCSC)C(=O)N1C
notes: macrocyclic peptide, Formula I series; also called Compound 61

IC50: 3410 nM
B7: Compound No. 62 (peptide)
peptide: {CH2CO}-F[NMeA]NPHL[Sar]WSI[NMeNle][NMeNle]RCG-NH2
modifications: thioether N-14
SMILES: CCCC[C@H]1C(=O)N(C)[C@@H](CCCC)C(=O)N[C@@H](CCCNC(=N)N)C(=O)N[C@H](C(=O)NCC(N)=O)CSCC(=O)N[C@@H](Cc2ccccc2)C(=O)N(C)[C@@H](C)C(=O)N[C@@H](CC(N)=O)C(=O)N2CCC[C@H]2C(=O)N[C@@H](Cc2c[nH]cn2)C(=O)N[C@@H](CC(C)C)C(=O)N(C)CC(=O)N[C@@H](Cc2c[nH]c3ccccc23)C(=O)N[C@@H](CO)C(=O)N[C@@H]([C@@H](C)CC)C(=O)N1C
notes: macrocyclic peptide, Formula I series; also called Compound 62

IC50: 258 nM
B10: Compound No. 65 (peptide)
peptide: FANPHLGWSWLXRCG
HELM: PEPTIDE1{[O=C(C[*:3])[*:2]].F.[meA].N.P.H.L.[Sar].W.S.W.[meL].[CCCC[C@@H](C(=O)[*:2])N(C)[*:1]].R.C.G.[am]}$PEPTIDE1,PEPTIDE1,1:R3-15:R3$$$V2.0
SMILES: CCCC[C@H]1C(=O)N[C@@H](CCCNC(=N)N)C(=O)N[C@H](C(=O)NCC(N)=O)CSCC(=O)N[C@@H](Cc2ccccc2)C(=O)N(C)[C@@H](C)C(=O)N[C@@H](CC(N)=O)C(=O)N2CCC[C@H]2C(=O)N[C@@H](Cc2c[nH]cn2)C(=O)N[C@@H](CC(C)C)C(=O)N(C)CC(=O)N[C@@H](Cc2c[nH]c3ccccc23)C(=O)N[C@@H](CO)C(=O)N[C@@H](Cc2c[nH]c3ccccc23)C(=O)N(C)[C@@H](CC(C)C)C(=O)N1C
notes: macrocyclic peptide, Formula I series; also called Compound 65
